The supplement of paper PMC9170038

Tested on: MS2 coat protein
Test: apparent KD of MS2 coat protein; higher = weaker reporter binding
Conditions: Eterna round: R107
Summary of the method: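 Values are apparent KD, taken as the median for each design of fits to normalised binding curves from individual clusters. The designed RNA switches were transcribed on-chip from Illumina sequencing clusters and exposed to SNAP-549-labelled MS2 coat protein at twofold increasing amounts from 0.7 or 1.5 nM to 3 µM. Titration used 100 mM Tris-HCl pH 7.5, 80 mM KCl and 4 mM MgCl2, without or with constant ligand.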

[1] = input ligand: theophylline 20 uM
[2] = input ligand: tryptophan 2.4 mM
[3] = input ligand: theophylline 2 mM

Sequence | apparent KD of MS2 coat protein (input ligand: arginine 13.2 mM) [µM] | apparent KD of MS2 coat protein [1] [µM] | apparent KD of MS2 coat protein [2] [µM] | apparent KD of MS2 coat protein [3] [µM] | apparent KD of MS2 coat protein (input ligand: none) [µM]
UAUAACAUGAGGAUCACCCAUGUAAGUGAUACCAGAUAAAUAAUAGUCCCUUGGCAGCAUAUUGGGAAAAUGUAUAAUAUAUAUU [Same State - Theophylline A (Freestyle 1)] | 0.0499 | 0.0721 | 0.0494 | – | –
UAUAGUGUGAUGGAUACCAGCAGAGAAAACGUUUAUCCUAACAUGAGGAUCACCCAUGUAUGCCCUUGGCAGCUGUUGUGUUAUA [8.O] | 0.0289 | 0.0425 | 0.0303 | – | –
UAUAUAUAUCACUAACUGUUCUUGAGGUCUCGAGGACCGGUACGGCCGCCACUCGUGCCGCCUCACAUGAGGAUCACCCAUGUCC [XTryp A #2] | 0.0553 | 0.0794 | – | 0.0816 | –
UAUAUGGUGAUGGAUACCAGCAGAGAAAACGUUUAUCCUAACAUGAGGAUCACCCAUGUAUGCCCUUGGCAGCUGUUGUUAUAUA [8.M] | 0.0267 | 0.0423 | 0.0352 | – | –
UAUCGCGCGGCGGCCGCCACUAAUGGCAGAUCUGUCGACUAACAUGAGGAUCACCCAUGUCUAACUAGGACCGGGCCCAAGUUGU [theeternabot_sameState_MS2_Trp_B_7] | 0.0305 | 0.0662 | – | 0.059 | –
UCAUAAGUACCGGUCCUCAGAUCCUCAUGACGAGGACCGGUACGGCCGCCACUCGAAACAUGAGGAUCACCCAUGUAAUAAUACU [Brourdmod15] | 0.0225 | 0.0379 | – | 0.0319 | –
UCAUGCAGGUCGGCCGCCACUACACACAUGAGGAUCACCCAUGUAGUUACUGGGUGAAGUGGCAGUAGGACCGGGACCUGCAUAU [Brourdmod08] | 0.155 | 0.664 | 0.559 | 0.696 | 0.423
UCGACGAUGACCAAAGGUCAGGAGUACGUACGAGGACCGGUACGGCCGCCACUCGAGGAGUGGGACAUGAGGAUCACCCAUGUGG [#20 Exclusion Tryptophan A] | 0.0166 | 0.0514 | 0.0374 | 0.0437 | 0.0382
UCGCUCUGGGUGGGAUCCGGAGAUGUGGAAGGAGCGCUGGAAACAGCAGGUAGGUCGCCAACGGACAUGAGGAUCACCCAUGUAC [Same State - Arginine A (Freestyle 18)] | 0.0649 | 0.0374 | 0.059 | 0.0377 | 0.0265
UCGGGCAGAGCGGCCGCCACUGUUUGGCGUGCGGAUGAAGGAACAUGAGGAUCACCCAUGUAGAUUAGGACCGGGCUUGCGGAGA [ddrmullin] | 0.00861 | 0.0181 | 0.0159 | 0.015 | 0.0138
UCGGUUUUCUACAUGAGGAUCACCCAUGUCCGAGGACCGGUACGGCCGCCACUCGCAAUCAAACAGACGUGGGCCAAAUUUGCGU [Isinso] | 0.0118 | 0.0148 | – | 0.0116 | –
UCGUAGCUAGGAAGGAGCGCAUACUUCACAUGAGGAUCACCCAUGUCGAGACGUGAGUCAGUGCAGGUAGGUCGCCUAGCUAUGA [Same State - Arginine B (Freestyle 26)] | 0.0182 | 0.0223 | 0.0193 | 0.0215 | 0.0176
UCGUUUGAGGCGGCCGCCACUGGUCUCAUGGUCAACAUGAGGAUCACCCAUGUAUCUUUGCCAAGCAGGACCGGGCCUCGAGCGA [#20 Exclusion Tryptophan B] | 0.0281 | 0.0414 | 0.0148 | 0.0291 | 0.0236
UCGUUUUAGUCGGCCGCCACUGGUCUCAUGUUCAACAUGAGGAUCACCCAUGUAUCUUAUUUUAACAGGACCGGGACGUAAUAGA [#16 Exclusion Tryptophan B] | 0.0908 | 0.0882 | – | 0.14 | –
UCUACAUGAGGAUCACCCAUGUGCCAUGAUACCAGACAUGAAAAUGUCCCUUGGCAGCAUGGGUAGCGCAUCCGAAAGGAUGCGU [#06 SameState-TheophyllineA] | 0.0424 | 0.155 | 0.0334 | – | –
UCUGGGUGCGCAAGGACCUGGAGUUGCGAUACCAGCACGGUAACGUGCCCUUGGCAGCGCACAUGAGGAUCACCCAUGUGGUGUU [#1 Exclusion - Theophylline A Attempt #18 (HarryS)] | 0.0656 | 0.247 | 0.204 | – | –
UCUUACUAUAGUGAUACCAGACGUACAUGAGGAUCACCCAUGUUACAUUCUUGGUUAAAAGUCCCUUGGCAGCACGAUUUGUUCG [JR_Nu_ExcTheophyB_Sub026] | 0.00988 | 0.0108 | 0.00976 | – | –
UGAACAUGAGGAUCACCCAUGUAGUCAGAUACCAGACACUGCAUGGUCCCUUGGCAGCUGAAGAGCGUUUGCCAAAUAACGUUCA [Theo A SS t4] | 0.052 | 0.223 | 0.258 | – | –
UGACAUGAGGAUCACCCAUGUGUAAGAGAAGGAGCGGCCGGAAGGCCAGGUAGGUCGCUCAGGUAGCGUGAGGAUCACCCGUGUG [big_hook] | 0.0818 | 0.13 | 0.0357 | 0.0975 | 0.161
UGACAUUGCUCAGAUACCAGACAUGAGGAUCACCCAUGUACCAAGGUACCCGAAAGGAAUGUCCCUUGGCAGCUGAGCAAUGUCU [TheoBX 3 #MS2Left #Theo2 #StaticStem] | 0.0117 | 0.0119 | 0.011 | – | –

Sequence | apparent KD of MS2 coat protein (input ligand: arginine 13.2 mM) [µM] | apparent KD of MS2 coat protein [1] [µM] | apparent KD of MS2 coat protein [2] [µM] | apparent KD of MS2 coat protein [3] [µM] | apparent KD of MS2 coat protein (input ligand: none) [µM]
UGAUCCUACAGAGAUACCAGUGCCGCUGAGUGACCAGACACAUGAGGAUCACCCAUGUAACACCCUUGGCAGCUCAACUAGAGGG [Same State Theophylline B GF19] | 0.0128 | 0.0187 | 0.022 | 0.0987 | 0.0184
UGAUGGAACGGAAGGAGCGUGUAAGAACAAGAACAUGAGGAUCACCCAUGUAUUAAUUUAACACAGGUAGGUCGCCGAGUUAUUG [11.F] | 0.00942 | 0.0421 | 0.0159 | 0.0286 | 0.0169
UGAUGGUUCGGAAGGAGCGUGUAAGAACAAGAACAUGAGGAUCACCCAUGUAUUAAUUUAACACAGGUAGGUCGCCGAGUUAUUG [11.I] | 0.0126 | 0.0221 | 0.017 | 0.0289 | 0.0159
UGGCGAGAAGGAAGGAGCGUCAGCUGAGUCACAUGAGGAUCACCCAUGUCGCACAUAGUGUGACAGGUAGGUCGCCUUCUGCCCU [Beinmain] | 0.0849 | 0.152 | 0.156 | 0.239 | 0.134
UGGCGAGAAGGAAGGAGCGUCAGCUGAGUUACAUGAGGAUCACCCAUGUUGCACAUAGUGUGACAGGUAGGUCGCCUUCUGCCCU [SS-ArgB19] | 0.038 | 0.0637 | 0.0376 | 0.0375 | 0.0441
UGGUACAUGAGGAUCACCCAUGUUCCAGAUACCAGAUACCCGGUUAUCCCUUGGCAGCUGGUGGUACAUGAGGAUCACCCAUGUG [Exclusion Theophylline A GF15] | 0.0329 | 0.0589 | 0.044 | – | –
UGGUACAUGAGGAUCACCCAUGUUCCAGAUACCAGUGUCCCGCUGCACCCUUGGCAGCUGGUGGCACAUGAGGAUCACCCAUGUG [Exclusion Theophylline A GF12] | 0.0115 | 0.0163 | 0.0151 | – | –
UGUAAAAUAACAGAUACCAGCGUGUUAUAAAACAUGAGGAUCACCCAUGUAGUGAUCAAGCGCCCUUGGCAGCUGGUAUUUUAUG [7.D] | 0.105 | 0.171 | 0.14 | – | –
UGUAUGGACUGAAGGAGCGGGAAAAUAAGAUGAGGAUCACCCAUCUAAAAGGCGAAAGCCACCCAGGUAGGUCGCAGUCCAUACU | 0.0277 | 0.0348 | 0.00703 | 0.00834 | 0.00899
UGUAUGGACUGAAGGAGCGGGUAAUAAACUUGAGGAUCACCCAGGUAAUAGGCGAAAGCCACCCAGGUAGGUCGCAGUCCAUACU | 0.0327 | 0.0389 | 0.0256 | 0.023 | 0.0285
UGUAUGGACUGAAGGAGCGGGUUGAUACCAUGAGGAUCACCCAUGGAAAAGGCGAAAGCCGCCCAGGUAGGUCGCAGUCCAUACU | 0.014 | 0.0197 | 0.0166 | 0.0184 | 0.0129
UGUAUGGGAACAUGAGGAUCACCCAUGUGGCGAGGACCGGUACGGCCGCCACUCGAGCAGCAAGCGUGUAUGACGCUGCUGCAUG [ss-trypA-0mod] | 0.225 | 0.377 | 0.136 | 0.324 | 0.312
UGUAUGUGAUCUGAUACCAGACGUGUAAACCUGAGGAUCACCCUGGUAAGGCGAAAGCCAGUCCCUUGGCAGCAGAUCGCAUACU | 0.0477 | 0.04 | 0.05 | 0.0215 | 0.049
UGUAUGUGAUCUGAUACCAGAGUUGAUAAUCUGAGGAUCACCCUGGUAAGGCGAAAGCCGCUCCCUUGGCAGCAGAUCGCAUACU | 0.526 | 0.969 | 0.884 | 0.244 | 0.946
UGUAUGUGAUCUGAUACCAGUCCAACUGGUAAAGCAUGAGGAUCACCCAUGCAAAAUUGGGACCCUUGGCAGCAGAUCGCAUACU | 0.167 | 0.213 | 0.267 | 0.0281 | 0.264
UGUCAAUCGCCGGAUACCAGCCUAACUGAAGGAAAUCUAAACAUGAGGAUCACCCAUGUAGGCCCUUGGCAGCCGAGUAAGUACA [theeternabot_exclusion_MS2_Theo_B_15] | 0.0339 | 0.0654 | 0.0357 | – | –
UGUCGCAGGUUAGAUACCAGCGAGGCGCGGGUAAAUGUUCACAUGAGGAUCACCCAUGUUCGCCCUUGGCAGCUAGUAGGCAUAA [theeternabot_exclusion_MS2_Theo_B_36] | 0.0239 | 0.034 | 0.0273 | – | –
UGUCGUAGACAUGAGGAUCACCCAUGUCCACGAGGACCGGUACGGCCGCCACUCGGGAUAUAAACCGUUACGGGUGGGUGGUGUU [Maarlainin] | 0.016 | 0.026 | – | 0.0212 | –
UGUCUAGUAAUCGAUACCAGCUACAUGAGGAUCACCCAUGUAGUUCGAACGGCCGCAUGUAGCCCUUGGCAGCGAAUAGUUACAU [Onbitelege] | 0.0142 | 0.0328 | 0.0187 | – | –
